Data as given in patent US20210206856A1 (PANDION OPERATIONS, published 2021).

T1: human MAdCAM expressed on cells (human, UniProt Q13477 19-382)
T1 construct: whole, on cells; also called MADCAM1
T1 sequence (looked up): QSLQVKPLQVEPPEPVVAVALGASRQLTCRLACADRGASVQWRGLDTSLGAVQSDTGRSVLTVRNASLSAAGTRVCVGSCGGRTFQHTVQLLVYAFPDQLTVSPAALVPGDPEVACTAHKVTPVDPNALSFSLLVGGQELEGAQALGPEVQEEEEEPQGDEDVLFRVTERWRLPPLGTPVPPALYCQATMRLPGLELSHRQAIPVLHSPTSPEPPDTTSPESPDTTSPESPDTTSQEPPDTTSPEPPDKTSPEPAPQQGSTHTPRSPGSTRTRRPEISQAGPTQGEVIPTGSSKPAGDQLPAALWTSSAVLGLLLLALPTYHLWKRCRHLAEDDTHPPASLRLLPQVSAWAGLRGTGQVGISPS

T2: mouse MAdCAM expressed on cells (mouse, UniProt Q61826 22-405)
T2 construct: whole, on cells
T2 sequence (looked up): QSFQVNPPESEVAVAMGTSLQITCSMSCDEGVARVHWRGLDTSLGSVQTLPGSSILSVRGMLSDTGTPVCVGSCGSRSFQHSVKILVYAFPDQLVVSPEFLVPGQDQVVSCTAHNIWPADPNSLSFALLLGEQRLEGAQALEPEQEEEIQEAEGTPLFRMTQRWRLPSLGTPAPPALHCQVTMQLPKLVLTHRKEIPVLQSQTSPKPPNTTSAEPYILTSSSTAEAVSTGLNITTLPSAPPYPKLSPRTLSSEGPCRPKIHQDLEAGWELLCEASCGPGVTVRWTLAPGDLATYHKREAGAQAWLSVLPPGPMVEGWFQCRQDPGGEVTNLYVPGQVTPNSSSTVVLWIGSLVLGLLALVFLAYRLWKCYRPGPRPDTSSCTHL

B1: MAdCAM Antibody Table 2 Clone 81 (antibody, human IgG1, V domains shown)
VH: EVQLLESGGGLVKPGGSLRLSCAASGFAFSSHWMHWVRQAPGKGLEWVAGTSGSGESRDYADFVKGRFTISRDDSKNTLYLQMNSLKTEDTAVYYCARETYYYYYMDVWGKGTTVTVSS
VL: DIQMTQSPSSLSASVGDRVTITCRASQGISNYLAWYQQKPGKAPKLLIYDAANLEGGVPSRFSGSGSGTDFTLTISSLQPEDFATYYCQQSDIFPPTFGQGTKVEIK
B2: MAdCAM Antibody Table 2 Clone 84 (antibody, human IgG1, V domains shown)
VH: QVQLVQSGAEVKKPGASVKVSCKASGGTFSSSAISWVRQAPGQGLEWMGWISAYNGYTNYAQKFQGRVTMTRDTSTSTVYMELSSLRSEDTAVYYCASRVHSGGSYPDDYWGQGTLVTVSS
VL: DIQMTQSPSSLSASVGDRVTITCQASEHIYNYLNWYQQKPGKAPKLLIYAASSLQSGVPSRFSGSGSGTDFTLTISSLQPEDFATYYCQQTDSIPITFGQGTKVEIK
B3: MAdCAM Antibody Table 2 Clone 82 (antibody, human IgG1, V domains shown)
VH: QVQLVQSGAEVKKPGASVKVSCKASGYTFTRHWIHWVRQAPGQGLEWMGWINVKTGGAGYAQKFQGRVTMTRDTSTSTVYMELSSLRSEDTAVYYCARESSGWYGTDVWGQGTTVTVSS
VL: DIQMTQSPSSLSASVGDRATITCRASQSISNYLAWYQQKPGKAPKLLIYAASSLQSGVPSRFSGSGSGTDFTLTISSLQPEDFATYYCQQSNSFPLTFGGGTKVEIK
B4: MAdCAM Antibody Table 2 Clone 83 (antibody, human IgG1, V domains shown)
VH: EVQLLESGGGLVQPGGSLRLSCAASGFTFSSYWMHWVRQAPGKGLEWVAAISYDGKYKDYEDSVKGRFTISRDNSKNTLYLQMNSLRAEDTAVYYCARENKQWLASFDYWGQGTLVTVSS
VL: DIQMTQSPSSLSASVGDRVTITCQASQDISNFVNWYQQKPGKAPKLLIYAANLRSGVPSRFSGSGSGTDFTLTISSLQPEDFATYYCQQANSFPVTFGPGTKVDIK
B5: MAdCAM Antibody Table 1 Clone 13 (scFv)
scFv: EVQLLESGGGLVQPGGSLRLSCAASGFTFDDYAMHWVRQAPGKGLEWVSYIDASGTTIYYADSVKGRFTISRDNSKNTLYLQMNSLRAEDTAVYYCAKDQAAAGYWYFDLWGRGTLVTVSSGGGGSGGGGSGGGGSGGGGSDIQMTQSPSSLSASVGDRVTITCQASQDISNYLNWYQQKPGKAPKLLIYKASTLESGVPSRFSGSGSGTDFTLTISSLQPEDFATYYCQQSYSTPITFGQGTRLEIK
B6: MAdCAM Antibody Table 1 Clone 21 (scFv)
scFv: EVQLLESGGGLVQPGGSLRLSCAASGFTFSNAWMSWVRQAPGKGLEWVSTIVGNGGATYYADSVKGRFTISRDNSKNTLYLQMNSLRAEDTAVYYCARDNPLRWQGMDVWGQGTLVTVSSGGGGSGGGGSGGGGSGGGGSDIQMTQSPSSLSASVGDRVTITCRASQDISNYLNWYQQKPGKAPKLLIYAASSLQSGVPSRFSGSGSGTDFTLTISSLQPEDFATYYCQQSYSIPPTFGPGTKVDIK
B7: MAdCAM Antibody Table 1 Clone 15 (scFv)
scFv: QVQLVQSGAEVKKPGSSVKVSCKASGYTFTNYYMHWVRQAPGQGLEWMGGIIPIVDRVKYAQKFQGRVTITADESTSTAYMELSSLRSEDTAVYYCAKGRYTVNYYYGMDVWGQGTTVTVSSGGGGSGGGGSGGGGSGGGGSDIQMTQSPSSLSASVGDRVTITCQANQDISNYLNWYQQKPGKAPKLLIYRASKLEAGVPSRFSGSGSGTDFTLTISSLQPEDFATYYCQQSSEIPYSFGQGTKLEIK
B8: MAdCAM Antibody Table 1 Clone 17 (scFv)
scFv: EVQLLESGGGLVQPGGSLRLSCAASGFTFSDSAMHWVRQAPGKGLEWVSAISGSGSTIYYADSVKGRFTISRDNSKNTLYLQMNSLRAEDTAVYYCVSDIAVAGHWYFDLWGRGTLVTVSSGGGGSGGGGSGGGGSGGGGSDIQMTQSPSSLSASVGDRVTITCRASQSISTFLNWYQQKPGKAPKLLIYAASRLEGGVPSRFSGSGSGTDFTLTISSLQPEDFATYYCQQANSFPLTFGPGTKVDIK
B9: MAdCAM Antibody Table 1 Clone 14 (scFv)
scFv: QVQLVQSGAEVKKPGSSVKVSCKASGYTFTDYHIHWVRQAPGQGLEWMGGIVPRSGSTTYAQKFQGRVTITADESTSTAYMELSSLRSEDTAVYYCAKDESSGWYYFDYWGQGTLVTVSSGGGGSGGGGSGGGGSGGGGSDIVMTQSPLSLPVTPGEPASISCRSSQSLLHSNGYNYLDWYLQKPGQSPQLLIYSAYNRASGVPDRFSGSGSGTDFTLKISRVEAEDVGVYYCMQALQTPLTFGQGTKVEIK
B10: MAdCAM Antibody Table 1 Clone 16 (scFv)
scFv: EVQLLESGGGLVQPGGSLRLSCAASGFTFEDYAMHWVRQAPGKGLEWVSYLNSDGGSTSYADSVKGRFTISRDNSKNTLYLQMNSLRAEDTAVYYCAKDYCTNGVCAFDYWGQGTLVTVSSGGGGSGGGGSGGGGSGGGGSDIQMTQSPSSLSASVGDRVTITCRASQSISTYLNWYQQKPGKAPKLLIYDASNLETGVPSRFSGSGSGTDFTLTISSLQPEDFATYYCQQSYTIPITFGQGTRLEIK
B11: MAdCAM Antibody Table 1 Clone 12 (scFv)
scFv: QVQLVQSGAEVKKPGASVKVSCKASGYTFTGYYMHWVRQAPGQGLEWMGWIGPNSGDTNYAQKFQGRVTMTRDTSTSTVYMELSSLRSEDTAVYYCARDLDHNWYFDLWGRGTLVTVSSGGGGSGGGGSGGGGSGGGGSDIVMTQSPLSLPVTPGEPASISCRSSQSLLHSNGYNYLDWYLQKPGQSPQLLIYSSSNRAPGVPDRFSGSGSGTDFTLKISRVEAEDVGVYYCMQALHIPLTFGGGTKVEIK
B12: MAdCAM Antibody Table 1 Clone 1 (scFv)
scFv: EVQLLESGGGLVQPGGSLRLSCAASGFTFSSYGMHWVRQAPGKGLEWVAVISDDGSDKYYADSVKGRFTISRDNSKNTLYLQMNSLRAEDTAVYYCTTSKYYYYYGMDVWGQGTTVTVSSGGGGSGGGGSGGGGSGGGGSDIQMTQSPSSLSASVGDRVTITCQASQDISKSLNWYQQKPGKAPKLLIYAASSLQSGVPSRFSGSGSGTDFTLTISSLQPEDFATYYCQQGYSTPLTFGGGTKVEIK
B13: MAdCAM Antibody Table 1 Clone 8 (scFv)
scFv: EVQLLESGGGLVQPGGSLRLSCAASGFMFGDYAMHWVRQAPGKGLEWVSAISGSGGSTYYADSVKGRFTISRDNSKNTLYLQMNSLRAEDTAVYYCAKDLVVAGIWYFDLWGRGTLVTVSSGGGGSGGGGSGGGGSGGGGSDIQMTQSPSSLSASVGDRVTITCRASQGISNNLNWYQQKPGKAPKLLIYDASSLESGVPSRFSGSGSGTDFTLTISSLQPEDFATYYCQQTHSFPSTFGQGTKLEIK
B14: MAdCAM Antibody Table 1 Clone 25 (scFv)
scFv: QVQLVQSGAEVKKPGASVKVSCKASGYTLTTWYMYWVRQAPGQGLEWMGWINPNRGATNYAQKFQGRVTMTRDTSTSTVYMELSSLRSEDTAVYYCAKGDLWGAMDVWGQGTLVTVSSGGGGSGGGGSGGGGSGGGGSDIQMTQSPSSLSASVGDRVTITCRASDNIGSWLAWYQQKPGKAPKLLIYAASSLQSGVPSRFSGSGSGTDFTLTISSLQPEDFATYYCQQGYSTPPTFGQGTKVEIK
B15: MAdCAM Antibody Table 1 Clone 30 (scFv)
scFv: B14 scFv

The binders below were run against T1, human MAdCAM expressed on cells (assay: cell binding).

binding result	Binder
binds	B1
binds	B2
binds	B3
binds	B4

Each binder was assayed against T2, mouse MAdCAM expressed on cells (assay: cell binding).

binding result	Binder
binds	B1
binds	B2
binds	B3
binds	B4

Biological target: T1, human MAdCAM expressed on cells
Assay: cell binding
Remark: another data set of the same source

binding result	Binder
binds	B5
binds	B6
binds	B7
binds	B8
binds	B9
binds	B10
binds	B11
binds	B12

Biological target: T2, mouse MAdCAM expressed on cells
Assay: cell binding
Remark: another data set of the same source

binding result	Binder
no binding	B5
no binding	B13
no binding	B6
no binding	B14
no binding	B15
no binding	B7
no binding	B8
no binding	B9
no binding	B10
no binding	B11
